# Data taken from paper PMC6304784, “Pathological mutations differentially affect the self-assembly and polymerisation of the innate immune system signalling adaptor molecule MyD88” (BMC Biology, 2018).
# Biological target: the molecule itself
# Test: single-molecule fluorescence fluctuation spectroscopy (brightness B parameter, time-traces, intensity histograms); GFP-tagged protein freely diffusing in the cell-free expression mixture on a confocal microscope, 488-nm laser; dilution series of the DNA template giving 0 to about 320 nM protein; mutants compared at 150 nM; samples diluted 10 times in buffer A
protein,measurement,value
"GFP-tagged MyD88 TIR domain (residues 159-296) (domain or fragment, human, UniProt Q99836 159-296, looked up, MyD88 TIR domain, residues 159-296; also called TIR domain alone; source: in vitro translated in Leishmania tarentolae extract (LTE), measured without purification; not shown: GFP, N-terminal, kept) ERFDAFICYCPSDIQFVQEMIRQLEQTNYRLKLCVSDRDVLPGTCVWSIASELIEKRCRRMVVVVSDDYLQSKECDFQTKFALSLSPGAHQKRLIPIKYKAMKKEFPSILRFITVCDYTNPCTKSWFWTRLAKALSLP",average brightness B (> 150 nM) relative to monomeric sfGFP,~4 fold over monomeric GFP
"GFP-tagged MyD88 death domain (residues 1-117, includes part of the intermediate domain) (domain or fragment, human, UniProt Q99836 1-117, looked up, MyD88 death domain with the crucial part of the intermediate domain, residues 1-117; also called DD; death domain alone; source: in vitro translated in Leishmania tarentolae extract (LTE), measured without purification; not shown: GFP, N-terminal, kept) MAAGGPGAGSAAPVSSTSSLPLAALNMRVRRRLSLFLNVRTQVAADWTALAEEMDFEYLEIRQLETQADPTGRLLDAWQGRPGASVGRLLELLTKLGRDDVLLELGPSIEEDCQKYI",average brightness B (> 150 nM) relative to monomeric sfGFP,~8 fold over monomeric GFP
